Substitutions are numbered along the chain they refer to.
T1: cynomolgus monkey CD73 antigen (cynomolgus monkey, UniProt A0A2K5V5U7 27-547)
T1 construct: also called Biotinylated cynomolgus monkey CD73
T1 sequence: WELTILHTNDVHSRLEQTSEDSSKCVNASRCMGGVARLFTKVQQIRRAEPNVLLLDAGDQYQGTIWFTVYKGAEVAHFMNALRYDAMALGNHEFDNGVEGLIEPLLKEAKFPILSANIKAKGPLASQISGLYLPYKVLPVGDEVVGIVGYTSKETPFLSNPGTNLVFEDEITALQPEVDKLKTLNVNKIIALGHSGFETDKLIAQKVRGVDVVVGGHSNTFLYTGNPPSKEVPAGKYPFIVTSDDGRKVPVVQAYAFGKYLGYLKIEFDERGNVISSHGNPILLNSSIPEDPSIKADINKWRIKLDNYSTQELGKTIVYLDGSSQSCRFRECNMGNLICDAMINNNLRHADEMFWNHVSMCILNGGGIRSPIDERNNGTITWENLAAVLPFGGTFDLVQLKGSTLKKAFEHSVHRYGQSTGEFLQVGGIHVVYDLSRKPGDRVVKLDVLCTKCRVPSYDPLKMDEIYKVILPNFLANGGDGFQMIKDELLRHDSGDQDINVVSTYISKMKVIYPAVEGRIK

T2: human CD73 antigen (human, UniProt P21589 27-547)
T2 construct: also called Biotinylated Human CD73
T2 sequence (looked up): T1 sequence with T199M, A350T, I466V

T3: human CD73 expressed on the cell surface (human, UniProt P21589 27-549)
T3 sequence: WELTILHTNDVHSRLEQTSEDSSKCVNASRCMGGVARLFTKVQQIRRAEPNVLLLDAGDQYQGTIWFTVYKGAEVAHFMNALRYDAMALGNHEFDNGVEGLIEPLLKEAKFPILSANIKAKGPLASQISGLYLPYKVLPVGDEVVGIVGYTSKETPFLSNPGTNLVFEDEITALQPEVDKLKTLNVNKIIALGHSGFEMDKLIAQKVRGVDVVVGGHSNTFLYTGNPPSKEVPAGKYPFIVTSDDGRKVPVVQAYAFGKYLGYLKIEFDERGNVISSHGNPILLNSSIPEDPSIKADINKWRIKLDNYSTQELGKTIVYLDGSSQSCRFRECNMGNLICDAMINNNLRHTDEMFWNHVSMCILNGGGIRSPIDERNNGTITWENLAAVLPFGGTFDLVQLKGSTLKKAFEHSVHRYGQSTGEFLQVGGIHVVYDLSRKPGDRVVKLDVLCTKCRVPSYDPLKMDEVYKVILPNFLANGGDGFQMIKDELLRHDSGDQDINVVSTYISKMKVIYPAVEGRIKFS

B1: scfv fragment of ADI-37497 (scFv, V domains shown)
VH: EVQLVESGGGLVQPGGSLRLSCAASGFTFDDYFMHWVRQAPGKGLEWVSGISWSSGPIDYADSVKGRFTISRDNAKNSLYLQMNSLRAEDTAVYYCAKGKYLPTGSVDYWGQGTLVTVSS
VL: EIVLTQSPGTLSLSPGERATLSCRASQSVSSSYLAWYQQKPGQAPRLLIYGASSRATGIPDRFSGSGSGTDFTLTISRLEPEDFAVYYCQQYYDYPPITFGGGTKVEIK
B2: scfv fragment of ADI-37496 (scFv, V domains shown)
VH: B1 VH with G16R, Y32F, F33Y, G56T, P57S
VL: B1 VL
B3: scfv fragment of ADI-37532 (scFv, V domains shown)
VH: QVQLVESGGGVVQPGRSLRLSCAASGFTFSSYSMHWVRQAPGKGLEWVAHIVEGSDKYYADSVKGRFTISRDNSKNTLYLQMNSLRAEDTAVYYCARSRYDWSLFDIWGQGTMVTVSS
VL: EIVLTQSPGTLSLSPGERATLSCGASQSVSSSYLAWYQQKPGQAPRLLIYGASSRATGIPDRFSGSGSGTDFTLTISRLEPEDFAVYYCQQYVLYPFTFGGGTKVEIK
B4: scfv fragment of ADI-37513 (scFv, V domains shown)
VH: EVQLLESGGGVVQPGRSLRLSCAASGFTFNFYGMHWVRQAPGKGLEWVAVINDEGINKYYADSVKGRFTISRDNSKNTLYLQMNSLRAEDTAVYYCARGGARYPIAFDIWGQGTMVTVSS
VL: DIQLTQSPSSVSASVGDRVTITCRASQDISSWLAWYQQKPGKAPKLLIYAASSLQSGVPSRFSGSGSGTDFTLTISSLQPEDFATYYCQQANDFPITFGGGTKVEIK
B5: scfv fragment of ADI-37522 (scFv, V domains shown)
VH: B4 VH with E1Q, L5V, N30S, F31H, N52S, I56S, G100W, A101L
VL: B4 VL
B6: scfv fragment of ADI-37503 (scFv, V domains shown)
VH: EVQLLESGGGLVQPGGSLRLSCAASGFTFSNYAMSWVRQAPGKGLEWVSAISGRASSTYYADSVKGRFTISRDNSKNTLYLQMNSLRAEDTAVYYCARGGPYGSGSYWDTFDYWGQGTLVTVSS
VL: EIVMTQSPATLSVSPGERATLSCRASQSVSSNLAWYQQKPGQAPRLLIYGASTRATGIPARFSGSGSGTEFTLTISSLQSEDFAVYYCQQYTNHYTFGGGTKVEIK
B7: scfv fragment of ADI-37506 (scFv, V domains shown)
VH: B6 VH with Y32L, S56T
VL: B6 VL
B8: scfv fragment of ADI-37507 (scFv, V domains shown)
VH: B6 VH with S30L, S35A, S56T
VL: B6 VL
B9: scfv fragment of ADI-37504 (scFv, V domains shown)
VH: B6 VH with S30H, R54T, A55G, S56R, S57A
VL: B6 VL
B10: scfv fragment of ADI-37505 (scFv, V domains shown)
VH: B6 VH with E1Q, L5V, S35T, A55G, S56T, S57A
VL: B6 VL
B11: ADI-37497 (antibody, human IgG4 S228P, kappa, F234A L235A, V domains shown)
VH: B1 VH
VL: EIVLTQSPGTLSLSPGERATLSCRASQSVSSSYLAWYQQKPGQAPRLLIYGASSRATGIPDRFSGSGSGTDFTLTISRLEPEDFAVYYCQQYYDYPPITFGGGTKVEIKR
B12: ADI-37496 (antibody, human IgG4 S228P, kappa, F234A L235A, V domains shown)
VH: B1 VH with G16R, Y32F, F33Y, G56T, P57S
VL: B11 VL
B13: ADI-37542 (antibody, human IgG4 S228P, kappa, F234A L235A, V domains shown)
VH: QVQLQESGPGLVKPSETLSLTCAVSGYSISEGYYWGWIRQPPGKGLEWIGSIYHTGFTYYNPSLKSRVTISVDTSKNQFSLKLSSVTAADTAVYYCARASIYTPPPEYFQHWGQGTLVTVSS
VL: DIQMTQSPSTLSASVGDRVTITCRASQSISSWLAWYQQKPGKAPKLLIYDASSLESGVPSRFSGSGSGTEFTLTISSLQPDDFATYYCQQSRIYSTFGGGTKVEIKR
B14: ADI-37543 (antibody, human IgG4 S228P, kappa, F234A L235A, V domains shown)
VH: B13 VH with E31S, G36A, Y53F, T55S, Y59F
VL: B13 VL
B15: ADI-37532 (antibody, human IgG4 S228P, kappa, F234A L235A, V domains shown)
VH: B3 VH
VL: EIVLTQSPGTLSLSPGERATLSCGASQSVSSSYLAWYQQKPGQAPRLLIYGASSRATGIPDRFSGSGSGTDFTLTISRLEPEDFAVYYCQQYVLYPFTFGGGTKVEIKR
B16: ADI-37513 (antibody, human IgG4 S228P, kappa, F234A L235A, V domains shown)
VH: B4 VH
VL: DIQLTQSPSSVSASVGDRVTITCRASQDISSWLAWYQQKPGKAPKLLIYAASSLQSGVPSRFSGSGSGTDFTLTISSLQPEDFATYYCQQANDFPITFGGGTKVEIKR
B17: ADI-37522 (antibody, human IgG4 S228P, kappa, F234A L235A, V domains shown)
VH: B4 VH with E1Q, L5V, N30S, F31H, N52S, I56S, G100W, A101L
VL: B16 VL
B18: ADI-37504 (antibody, human IgG4 S228P, kappa, F234A L235A, V domains shown)
VH: B6 VH with S30H, R54T, A55G, S56R, S57A
VL: EIVMTQSPATLSVSPGERATLSCRASQSVSSNLAWYQQKPGQAPRLLIYGASTRATGIPARFSGSGSGTEFTLTISSLQSEDFAVYYCQQYTNHYTFGGGTKVEIKR
B19: ADI-37503 (antibody, human IgG4 S228P, kappa, F234A L235A, V domains shown)
VH: B6 VH
VL: B18 VL
B20: ADI-37507 (antibody, human IgG4 S228P, kappa, F234A L235A, V domains shown)
VH: B6 VH with S30L, S35A, S56T
VL: B18 VL

Target: T1, cynomolgus monkey CD73 antigen
Test: ForteBio BLI; antigen on sensor, 100 nM scFv; monovalent; 1:1 model
Experimental: (§1) Human or cynomolgus monkey CD73 antigen protein was loaded on-line to the AHQ sensor (ForteBio) for ForteBio affinity measurement. […] Kinetic analysis was performed by using a 1:1 binding model.

| Binder | Kd |
| --- | --- |
| B1 | 8.82 nM |
| B2 | 13.7 nM |
| B3 | 0.53 nM |
| B4 | 2.26 nM |
| B5 | 2.93 nM |
| B6 | 6.61 nM |
| B7 | 4.77 nM |
| B8 | 23.7 nM |
| B9 | 20.2 nM |
| B10 | 5.34 nM |

Target: T2, human CD73 antigen
Test: as above
Experimental: as §1

| Binder | Kd |
| --- | --- |
| B1 | 10.2 nM |
| B2 | 13.8 nM |
| B3 | 0.581 nM |
| B4 | 2.84 nM |
| B5 | 2.43 nM |
| B6 | 7.95 nM |
| B7 | 5.41 nM |
| B8 | 9.21 nM |
| B9 | 15.4 nM |
| B10 | 5.56 nM |

Target: T3, human CD73 expressed on the cell surface
Test: cell-based or functional assay

| Binder | IC50 for inhibiting the enzymatic activity of CD73 (Calu-6 cells) |
| --- | --- |
| B11 | 0.147 µg/mL |
| B12 | 0.173 µg/mL |
| B13 | 0.189 µg/mL |
| B14 | 0.196 µg/mL |
| B15 | 0.114 µg/mL |
| B16 | 0.143 µg/mL |
| B17 | 0.146 µg/mL |
| B18 | 0.07 µg/mL |
| B19 | 0.062 µg/mL |
| B20 | 0.078 µg/mL |

— patent US20230312741A1 (published 2023)
